Measurements as given in KR20240034954A (dated 2024).

Experiments:
야생형의 SIRPα = target: T1, 야생형의 SIRPα (Homo sapiens (Human), UniProt P78324 31-149, limits assumed); test: western blot
T1 construct: also called wtSIRPα; wild-type SIRPα

[1] = target: T2, 서열번호 2의 아미노산 서열을 포함하는 SIRPα 변이체 (Homo sapiens (Human), UniProt P78324 31-149); test: indirect ELISA, vSIRPα (SEQ ID NO 2) coated at 1.0 ug/ml, anti-mouse IgG Fcγ-peroxidase secondary
T2 construct: Engineered SIRPα variant; also called vSIRPα; vSIRPα antigen
T2 chain: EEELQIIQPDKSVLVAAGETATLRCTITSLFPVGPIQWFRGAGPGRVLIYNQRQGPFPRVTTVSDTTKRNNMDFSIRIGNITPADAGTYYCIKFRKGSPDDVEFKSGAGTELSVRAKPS

B1: 항-vSIRPα 단일클론 항체 (SIRPα 변이체 특이적인 단일클론 항체) (antibody, V domains shown)
VH: EVQLQQSGPELVKPGASVKISCKASGYSFTGYYMHWVKQSHVKSLEWIGRINPYNGATNYNQNFKDKASLTLDKSSSTAYVELHSLTSEDSAVYYCTRNDGYYWYFDVWGAGTTVTVSS
VL: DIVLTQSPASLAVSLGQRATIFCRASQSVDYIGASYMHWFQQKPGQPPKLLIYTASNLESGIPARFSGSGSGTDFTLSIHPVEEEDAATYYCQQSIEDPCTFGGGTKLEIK
notes: Two clones were selected; also called 제작된 2종 항체; 개발한 항체 2종
binding result (야생형의 SIRPα): no binding
binding result [1]: binds
